The values below come from patent US20240294650A1 (Alector, published 2024).

For orientation: Kd means the concentration at which binding is half-saturated.

For experiment [1], the target named is T1, MerTK N-terminal ECD Half-and-half chimera (human).
T1 construct: tested as culture supernatant; also called MerTK N-term half-and-half chimera; MerTK N-terminal ECD (NT-Ig1-Ig2) + Axl C-terminal ECD (FN1-FN2-JM)
T1 chain: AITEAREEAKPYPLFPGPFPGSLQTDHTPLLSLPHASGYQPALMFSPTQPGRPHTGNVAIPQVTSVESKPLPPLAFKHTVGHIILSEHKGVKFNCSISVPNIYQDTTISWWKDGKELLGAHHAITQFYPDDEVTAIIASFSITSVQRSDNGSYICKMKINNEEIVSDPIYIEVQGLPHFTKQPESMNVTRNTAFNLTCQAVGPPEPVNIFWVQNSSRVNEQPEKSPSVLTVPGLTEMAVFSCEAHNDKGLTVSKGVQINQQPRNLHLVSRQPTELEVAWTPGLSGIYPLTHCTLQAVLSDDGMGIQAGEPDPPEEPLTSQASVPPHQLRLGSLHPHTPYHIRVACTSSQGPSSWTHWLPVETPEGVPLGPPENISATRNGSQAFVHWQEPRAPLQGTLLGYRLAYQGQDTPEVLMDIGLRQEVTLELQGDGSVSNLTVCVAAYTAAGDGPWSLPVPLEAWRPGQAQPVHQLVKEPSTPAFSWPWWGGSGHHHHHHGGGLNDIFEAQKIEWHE
The experiment can be described thus: SPR, construct supernatant over immobilised Ab. On the procedure:
Binding of anti-MerTK antibodies of the present disclosure to these domain-swapped chimera or deletion mutants was tested by Surface Plasmon Resonance (SPR) using Carterra LSA. Purified anti-MerTK antibodies were immobilized in duplicate on a HC30M chip (Carterra) by amine coupling, following the manufacturer's instructions (described previously).
Supernatants containing the constructs were diluted 1:1 with running buffer containing 0.5 mg/mL BSA (HBS-TE, Carterra; BSA, Sigma) and injected over the immobilized antibodies. The surface was regenerated with 10 mM Glycine pH2.0 after each construct injection. Sensorgrams were analyzed using Carterra Epitope software to identify patterns of construct binding. Loss of binding to MerTK constructs with domains deleted or swapped in from Axl and/or gain of binding to Axl constructs with MerTK domains swapped in were evaluated. Data from these studies were used to construct a domain binding map for anti-MerTK antibodies and their binding to various domains of human MerTK.

The target in experiment [2] is T2, recombinant cynomolgus MerTK extracellular domain (cynomolgus, UniProt Q12866 21-505 (human entry)).
T2 construct: also called cyno MerTK ECD; not shown: polyHis or TEVS/Thrombin/murine IgG2a-Fc tag
T2 chain: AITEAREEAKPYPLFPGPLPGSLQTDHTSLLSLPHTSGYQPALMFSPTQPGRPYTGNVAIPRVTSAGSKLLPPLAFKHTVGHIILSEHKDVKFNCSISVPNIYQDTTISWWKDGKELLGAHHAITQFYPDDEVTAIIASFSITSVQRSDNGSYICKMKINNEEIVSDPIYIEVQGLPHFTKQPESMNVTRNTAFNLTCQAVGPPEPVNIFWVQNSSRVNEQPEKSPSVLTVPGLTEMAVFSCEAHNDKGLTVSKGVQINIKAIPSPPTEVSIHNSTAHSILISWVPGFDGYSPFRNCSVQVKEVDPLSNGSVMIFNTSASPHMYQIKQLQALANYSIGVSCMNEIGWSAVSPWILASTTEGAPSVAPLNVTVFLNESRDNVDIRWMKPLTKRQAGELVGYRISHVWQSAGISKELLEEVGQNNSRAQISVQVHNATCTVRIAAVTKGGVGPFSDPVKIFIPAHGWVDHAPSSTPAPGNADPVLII
Put plainly: SPR Carterra LSA. Here is the method:
Binding kinetics of anti-MerTK IgG1 antibodies of the present disclosure to human, cyno, and murine MerTK were evaluated using a Carterra LSA instrument (Carterra, Salt Lake City, UT). […] A HC200M sensor chip (Carterra) was activated using the single channel flow cell with a 7-minute injection of a 1:1:1 mixture of 100 mM MES pH 5.5, 100 mM sulfo-NHS, 400 mM EDC (all reconstituted in MES pH 5.5; 100 μl of each mixed in vial immediately before running assay). After switching to the multi-channel array flow cell, the antibodies were injected over the activated chip in three 96-spot arrays for 10 minutes each. The remaining unconjugated active groups on the chip were then blocked by injecting 1M Ethanolamine pH 8.5 (Carterra) for 7 minutes using the single channel flow cell. The resulting sensor chip contained three spots for each antibody, at three different densities. Two independent experiments were performed as follows, resulting in an N of between one and six determinations for each antibody. Spots that yielded less than 25 RU of analyte binding were excluded from further analysis.
After priming with running buffer (HBS-TE, Carterra) with 0.5 mg/ml BSA (Sigma), the immobilized anti-MerTK antibodies were tested for their ability to bind to several forms of recombinant MerTK extracellular domain, including human, cynomolgus, and mouse orthologs as described above. Estimates of affinity were generated by injecting each analyte over the entire antibody array using the single channel flow cell. MerTK analytes were diluted with running buffer, in a series of six, three-fold serial dilutions starting from 1 μM for human and cynomolgus MerTK, and 600 nM for mouse MerTK. Analytes were injected for 5 minutes, and dissociation was followed for 10 minutes. After each analyte injection, antibodies were regenerated with either Protein A/G Elution Buffer (Thermo) with 1M NaCl (Teknova), or with 10 mM Glycine pH 2.5. Three buffer blanks were run between each series (one species per series). Data were processed and analyzed using NextGenKIT high-throughput kinetics analysis software (Carterra).

The target of experiment [3] is T3, recombinant human MerTK extracellular domain (human, UniProt Q12866 21-505).
T3 construct: also called human MerTK ECD; not shown: polyHis or TEVS/Thrombin/murine IgG2a-Fc tag
T3 sequence: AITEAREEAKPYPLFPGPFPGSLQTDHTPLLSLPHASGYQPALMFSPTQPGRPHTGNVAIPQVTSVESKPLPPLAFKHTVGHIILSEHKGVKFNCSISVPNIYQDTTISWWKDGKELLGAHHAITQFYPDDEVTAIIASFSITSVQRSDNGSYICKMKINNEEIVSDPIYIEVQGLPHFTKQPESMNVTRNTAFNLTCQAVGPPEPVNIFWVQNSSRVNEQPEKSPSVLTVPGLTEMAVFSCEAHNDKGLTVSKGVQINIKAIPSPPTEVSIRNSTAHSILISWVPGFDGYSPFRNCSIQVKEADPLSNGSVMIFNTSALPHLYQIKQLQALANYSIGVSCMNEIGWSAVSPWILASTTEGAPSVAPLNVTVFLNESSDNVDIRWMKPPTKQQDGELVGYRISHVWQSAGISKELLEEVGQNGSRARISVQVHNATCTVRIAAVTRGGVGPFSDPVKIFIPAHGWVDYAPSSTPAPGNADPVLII
Put plainly: SPR Carterra LSA, Ab immobilised. In a few lines:
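Surface plasmon resonance on a Carterra LSA measured affinity of immobilized antibodies for human, cynomolgus or mouse MerTK ectodomain diluted in HBS-TE with 0.5 mg/ml BSA. Analytes flowed over the full array, surfaces were regenerated with Protein A/G Elution Buffer plus 1M NaCl or 10 mM Glycine pH 2.5, and spots binding under 25 RU were discarded before kinetic fitting.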

B1: MTK-203 (antibody, human IgG1, V domains shown)
VH: QVQLQQPGAELVKPGASVKVSCKASGYTFTNYWMHWVKQRPGQGLEWIGRIHPFDTETNDNQKFKGKATLTVDKSSSTAYMQLSSLTSEDSAVYYCVIPANGGFAYWGQGTLVTVSA
VL: ETTVTQSPASLSVATGEKVTIRCITSTDIGDDMNWYQQKPGEPPKVLISEGNSLRPGVPSRFSSSGYGTDFVFTIENTLSEDVADYFCLQSDNLPLTFGSGTKLEIK
B1: the binding result in experiment [1] is listed as “no binding”.

B2: MTK-219 (antibody, human IgG1, V domains shown)
VH: QVQLQQSGADLMKPGASVKLSCKATGNTFTGYWIEWVKQRPGHGLEWIGEILTGSGSTNYNERFKGKATFTADTSSNTAYMQLSSLTTEDSAIYYCAGSYFTNSWFPYWGQGSLVTVSA
VL: DIVLTQSPASLAVSLGQRATISCRASESVDSYGNSFMHWYQQKPGQPPKLLIYRAYTLESGIPARFSGSGSRTDFTLTINPVEADDVATYYCQQSNEDPRTFGGGTKLEIK
Consider B2, for which the “Ratio of KD for Cynomolgus vs Human MerTK” value (“Ratio of KD for Cynomolgus” for short) in experiment [2] came out at 1.9 ratio. The Kd in experiment [3] turned out to be 440 nM. The binding result in experiment [1] is reported as “no binding”.

B3: MTK-222 (antibody, human IgG1, V domains shown)
VH: QVQLQQSGADLMKPGASVKLSCKATGYTFTGYWIEWVKQRPGHGLEWIGEILTGSGSSNYNEKFKGKATFTADSSSNTAFMQLSSLTTEDSAIYYCAGSYYSNSWFPYWGQGSLVTVSA
VL: DIVLTQSPVSLAVSLGQRATISCRASESVDSYGSSFMHWYQQKPGQPPKLLIYRASSLESGIPARFSGSGSRTDFTLTINPVETDDVATYYCQQSNEDPRTFGGGTKLEIK
For the molecule B3, the “Ratio of KD for Cynomolgus” value in experiment [2] came to 1 ratio. The Kd in experiment [3] came to 130 nM. The binding result in experiment [1] was “no binding”.

B4: MTK-230 (antibody, human IgG1, V domains shown)
VH: EVQLQQSGPELVKPGASVRIPCKASGYTFSDYNMDWVKQSHGKSLEWIGNINPNIGGTIYSQKFKGKATLTVDKSSSTAYMELRSLTSEDTAVYYCARGDYGFASWGQGTLVTVSA
VL: DIVLTQSPASLTVSLGQRATISCRASRSVSTSGYSYMHWYQQKPGQPPKLLIYLASNLESGVPARFSGSRSGTDFTLNIHPVEEEDAATYYCQHSREYPFTFGSGTKLEIK
For the molecule B4, the binding result in experiment [1] is recorded as “no binding”.

B5: MTK-214 (antibody, human IgG1, V domains shown)
VH: QVQLQQPGAELVKPGASVKVSCKASGYTFTNYWMHWMKQRPGQGLEWIGRIHPFDSDTNYNEKFTDKATLTVDKSSSTAYMQLSSLTSEDSAVYYCAIGTLIYWGQGTTLTASS
VL: DILLTQSPATLSVTPGETVSLSCRASQSIYKKLHWFQQRSHRSPRLLIKFASDSISGIPSRFTGSGSGTDYTLSINSVKPEDEAIYYCLQGYSTPLTFGAGTKLELK
For B5, in experiment [1], the binding result is reported as “no binding”.

B6: MTK-229 (antibody, human IgG1, V domains shown)
VH: QVQLQQSGPELVKPGASVKISCKASGYEFSRSWMNWVKQRPGKGLEWIGRIYPGDGDTNYKGKLKGQATLTADKSSSTAYMQLSSLTFEDSAVYFCARGGGYYYDSRYEGFVYWGQGTVVTVSA
VL: QIVLTQSPAIMSASPGEEVTMTCSASSSVSYMHWYQQKSGTSPKRWIYDTSKLASGVSGRFSGSGSGTSYSLTISSMEAEDAATYYCQQWSSNPPITFGAGTKLELK
As for B6, in experiment [2], the “Ratio of KD for Cynomolgus” value worked out at 2.9 ratio. Further, the Kd in experiment [3] came out at 18 nM. For the same molecule, in experiment [1], the binding result was “no binding”.

B7: MTK-227 (antibody, human IgG1, V domains shown)
VH: EVKLVESGGGLVQPGGSLSLSCAASGFTFTDNYMTWVRQPPGKALEWLGFSRNKANGYTTEYSASVKGRFTISRDSSQSILYLQMNALRAEDSGTYYCARFPPHYYAGGYFDVWGTGTTVTVSS
VL: DIQMTQSPASLSASVGETVTITCRASENIYSYLAWYQQKQGKSPQLLVYNAKTLAEGVPSRFSGSGSGTQFSLKINSLQPADFGSYYCQHYYRTPPTFGGGTKLEIK
Turning to B7, the “Ratio of KD for Cynomolgus” value in experiment [2] is 0.8 ratio. The Kd in experiment [3] was 99 nM. The binding result in experiment [1] was “no binding”.

B8: MTK-221 (antibody, human IgG1, V domains shown)
VH: QVTLKESGPGMLQSSQTLSLTCSFSGFSLSTSGMGVSWIRQPSGKGLEWLAHIYWDDDKRYNTSLQSRLTISKDTSRNQVFLKITSVDTADTATYFCGRLGAYSAFPYYFDYWGQGTTLTVSS
VL: DIQMTQSPSSLSASLGGKVTITCKASQDIHKHIAWYQHKPGKGPRLLIHYTSTLQPGIPSRFSGSGSGRDYSFSISNLEPEDLATYYCLQYDNLWTFGGGTKLEIK
Regarding B8, in experiment [2], the “Ratio of KD for Cynomolgus” value turned out to be 1.3 ratio. Besides, the equilibrium dissociation constant (Kd) in experiment [3] worked out at 29 nM.

B9: MTK-224 (antibody, human IgG1, V domains shown)
VH: QVQLQQPGAELVKPGASVKVSCKASGYTFTSYWMHWVKQRPGQGLEWIGRIHPFDSDTNYNQKFKGKATLTVDKSSSTAYMQLSSLTSEDSAVYYCSIAGFAYWGQGTLVTVSA
VL: DIVMTQSPATLSVTPGDRVSLSCRASQIISDYLNWYQQKSHESPRLLIKYASQSISGIPSRFSGSGSGSDFTLSINSVEPEDVGVYYCQNGHSFPLTFGAGTKLELK
As to B9, the binding result in experiment [1] was “no binding”.

B10: MTK-209 (antibody, human IgG1, V domains shown)
VH: QVQLQQPGAELVKPGASVKVSCKASGYTFTNYWIHWVKQRPGQGLEWIGRIHPFDSEPNYNQKFKGKATLTVDKSSSTAYMHLTSLTSEDSAVYYCALASFAYWGQGTLVTVSA
VL: ETTVTQSPASLSMAMGEKATIRCITSTDIDDKMNWYQQKPGKPPKLLISAGNTLRPGVPSRFSSSGYGTDFVLTVENMLSEDVADYYCLQGGALPLTFGSGTKLEIK
B10: the binding result in experiment [1] is given as “no binding”.
